In paper PMC5526998, “Structural analysis of the regulatory mechanism of MarR protein Rv2887 in M. tuberculosis” (Scientific Reports, 2017):

What was measured:
[1] = biological target: T1, Rv2887 (MarR family regulator) (Mycobacterium tuberculosis H37Rv) (UniProt P9WME9); assay: DNase I footprinting
T1 sequence: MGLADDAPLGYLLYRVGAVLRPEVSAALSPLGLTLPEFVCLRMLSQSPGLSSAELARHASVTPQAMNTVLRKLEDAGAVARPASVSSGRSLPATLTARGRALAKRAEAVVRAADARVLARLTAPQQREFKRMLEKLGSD

[2] = biological target: T1, Rv2887 (MarR family regulator) (Mycobacterium tuberculosis H37Rv); assay: EMSA
[3] = biological target: T2, Rv2887 (crystal with DNA) (Mycobacterium tuberculosis H37Rv, UniProt P9WME9 1-139); assay: X-ray crystal structure (2.5 A); conditions: protein: recombinant; tags: N-terminal 6xHis (pET-28a); chain copies: 4; blunt
T2 sequence: T1 sequence

CGAACTCAAGATCCAGCGATTCAGTCATGTGTTCATATATATCAACGGCCCTGATATATGTCAACACAGTTGACATTCGCGCACCCTTGGTTGCCGGCCGTCAGCTGAACGGCGGTCGTCGATCGACGAGCCGGGACAATTGACCGCCACCGCGCCACACCCGCGCCACCCAGTCGCGGTCGTCGTCGGTGACCAGATTGGACATCACCCGCACGGCGATGTTCATCAATGCGGTGGAGCGCATCGTGATGGGC (double strand) [Rv0560c upstream probe (6-FAM)]
binding [1]: binds

CGAACTCAAGATCCAGCGATTCAGTCATGTGTTCATATATATCAACGGCCCTGATATATGTCAACACAGTTGACATTCGCGCACCCTTGGTTGCCGGCCGTCAGCTGAACGGCGGTCGTCGATCGACGAGCCGGGACAATTGACCGCCACCGCGCCACACCCGCGCCACCCAGTCGCGGTCGTCGTCGGTGACCAGATTGGACATCACCCGCACGGCGATGTTCATCAATGCGGTGGAGCGCATCGTGATGGGC (double strand) [Rv0560c upstream probe (biotin)]
binding [2]: binds

B1: 30 bp Rv0560c operator duplex (dsDNA)
DNA 1: CGATCGACGACCGCCGTTCAGCTGACGTCG
DNA 2: CGACGTCAGCTGAACGGCGGTCGTCGATCG
binding result [3]: binds
